# B1: 53L10-M13 (other)
# chain 1: QVQLVQSGAEVKKPGASVKVSCKASGYSFTSYYMHWVKQSPGQGLEWIGRINPNNGVTLYNQKFKDRVTMTRDTSISTAYMELSRLRSDDTAVYYCARSTMITNYVMDYWGQGTLVTVSSASTKGPSVFPLAPSSKSTSGGTAALGCLVKDYFPEPVTVSWNSGALTSGVHTFPAVLQSSGLYSLSSVVTVPSSSLGTQTYICNVNHKPSNTKVDKKVEPKSCDKTHTGPGGGSPGQVQLVQSGAELKKPGASVKVSCKASGYTFTRYTMHWVRQAPGQCLEWMGYINPSRGYTNYNQKFKDKATLTADKSTSTAYMELRSLRSDDTAVYYCARYYDDHYSLDYWGQGTLVTVSSASGGGGSGGGGSGGGGSAGDIQLTQSPSILSASVGDRVTITCRASSSVSYMNWYQQKPGKAPKRWIYDTSKVASGVPYRFSGSGSGTEYTLTISSMQPEDFATYYCQQWSSNPLTFGCGTKVEIKSG
# chain 2: not shown
# notes: also called 53L10 mutant; 53L0-M13
# B2: 53G tribody (other)
# chain 1: B1 chain 1
# chain 2: not shown
# notes: Trispecific tribody, a heterodimer; L chain derivative: VL(5T4)-CL-scFv(LAG3.1); also called 5T4xCD3xLAG3
# B3: 53D tribody (other)
# chain 1: B1 chain 1
# chain 2: not shown
# notes: Trispecific tribody, a heterodimer; H chain derivative: VH(5T4)-CH1-scFv(hOKT3); L chain derivative: VL(5T4)-CL-scFv(PD-1.1); also called 5T4xCD3xPD-1
# B4: 53P tribody (other)
# chain 1: B1 chain 1
# chain 2: not shown
# notes: also called 5T4xCD3xisotype control
# Experiments:
# [1] = biological target: T1, recombinant human 5T4 protein (5T4/His) (human, UniProt Q13641 32-355); experiment: ELISA, immobilized recombinant human 5T4, 0-500 nM (N=2)
# T1 construct: also called Human 5T4/His; recombinant 5T4; not shown: His tag of the bought protein
# T1 sequence: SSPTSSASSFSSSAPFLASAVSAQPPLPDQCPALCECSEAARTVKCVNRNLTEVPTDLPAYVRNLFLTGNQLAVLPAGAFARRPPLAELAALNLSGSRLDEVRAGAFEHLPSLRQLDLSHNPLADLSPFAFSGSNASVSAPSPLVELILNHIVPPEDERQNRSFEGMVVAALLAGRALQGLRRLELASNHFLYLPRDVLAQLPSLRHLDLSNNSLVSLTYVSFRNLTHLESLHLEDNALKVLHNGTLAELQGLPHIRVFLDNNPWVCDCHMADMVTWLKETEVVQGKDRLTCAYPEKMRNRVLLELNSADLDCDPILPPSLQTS
# Description: The binding affinity of purified 53L10-M13 to 5T4 antigen was examined by ELISA (FIG. 14). A recombinant human 5T4 protein (ACRO Biosystems) was immobilized in a 96-well plate using the same method as that performed in FIG. 2 (Example 1). […] The curve showing the binding affinity of 53L10-M13 to 5T4 overlapped with the curve showing the binding affinity of 53L10 (●) to 5T4. The EC₅₀ values were 0.58 nM for 53L10-M13 and 0.53 nM for 53L10 (FIG. 14B).
# [2] = biological target: T2, recombinant human PD-L1/Fc (human, UniProt Q9NZQ7 19-239, biotinylated in the competitive ELISA (sites not given)); experiment: ELISA, immobilized recombinant human PD-L1/Fc, 0-500 nM (N=2)
# T2 construct: Bought from R&D Systems; also called recombinant PD-L1 protein; biotinylated PD-L1 ligand; not shown: Fc part of the bought fusion
# Description: The binding affinity of purified 53L10-M13 to recombinant PD-L1 protein was examined by ELISA (FIG. 16). A recombinant human PD-L1/Fc protein (R&D Biosystems) was immobilized in a 96-well plate using the same method as that performed in Example 4. According to the procedure described in “Materials and Methods” later, the binding assay of 53L10-M13 and 53L10 to human PD-L1 protein was performed at increasing concentrations (0-500 nM). […] The curve showing the binding affinity of 53L10-M13 to PD-L1 overlapped with the curve showing the binding affinity of 53L10 (●) to PD-L1.
# [3] = biological target: T3, 5T4 on 5T4-expressing CHO-K1 cells (UniProt Q13641 32-420); experiment: cell-based or functional assay
# T3 sequence (looked up): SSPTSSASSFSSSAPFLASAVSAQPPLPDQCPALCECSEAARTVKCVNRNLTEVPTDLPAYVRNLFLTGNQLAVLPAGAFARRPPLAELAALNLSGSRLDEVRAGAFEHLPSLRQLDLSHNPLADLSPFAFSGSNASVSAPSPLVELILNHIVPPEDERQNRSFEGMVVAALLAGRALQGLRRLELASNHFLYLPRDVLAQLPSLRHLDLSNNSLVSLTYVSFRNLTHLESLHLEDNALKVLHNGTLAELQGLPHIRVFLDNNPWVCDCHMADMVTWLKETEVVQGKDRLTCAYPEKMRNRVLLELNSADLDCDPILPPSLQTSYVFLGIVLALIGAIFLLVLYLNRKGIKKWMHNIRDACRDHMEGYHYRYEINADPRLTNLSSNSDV
# [4] = biological target: T1, recombinant human 5T4 protein (5T4/His); experiment: ELISA, immobilized recombinant human 5T4, tribody 0-500 nM
# Description: A recombinant human 5T4 protein (AMSBio) was immobilized onto 96-well ELISA plates. The binding assay of Tb535H and purified novel tribodies was performed by testing at increasing concentrations (0-500 nM) were carried out according to the procedure described in Materials and Methods. […] The Tb535H has two 5T4 binding arms derived from Fab and scFv, and the novel 53X tribody constructed has a monovalent 5T4 binding arm derived from a single Fab.
# [5] = biological target: T4, recombinant human PD-1/Fc (human, UniProt Q15116 25-167); experiment: ELISA, immobilized recombinant human PD-1 (per the legend of FIG. 4B; the sentence prints PD-L1)
# T4 construct: Bought from R&D Systems; also called recombinant PD-1 protein; immobilized PD-1 receptor; not shown: Fc part of the bought fusion
# From the text: To verify whether the novel tribodies including a binding arm to PD-L1 or PD-1 have a satisfactory binding affinity for their target recombinant proteins, we perfomed ELISA assays on immobilized PD-1 or PD-L1 proteins (FIG. 4).
# T2 sequence (Q9NZQ7 19-239 limits assumed): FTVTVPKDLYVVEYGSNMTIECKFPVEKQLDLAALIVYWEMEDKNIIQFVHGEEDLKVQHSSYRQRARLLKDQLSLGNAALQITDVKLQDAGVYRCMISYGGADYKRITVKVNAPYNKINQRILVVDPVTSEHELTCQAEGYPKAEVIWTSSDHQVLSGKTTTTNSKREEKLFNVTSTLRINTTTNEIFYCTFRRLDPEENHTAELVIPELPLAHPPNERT
# T4 sequence (Q15116 25-167 limits assumed): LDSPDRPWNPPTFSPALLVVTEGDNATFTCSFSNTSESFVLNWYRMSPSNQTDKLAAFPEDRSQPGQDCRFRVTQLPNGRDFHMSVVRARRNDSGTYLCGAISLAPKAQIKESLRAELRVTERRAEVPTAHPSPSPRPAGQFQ
Binder,EC50 [1] [nM],EC50 [2] [nM],"EC50 of luciferase activity, T cell activation bioassay (NFAT) with CHO-5T4 target cells [3] [nM]",binding result [4],binding result [5]
B1,0.58,36.9,0.016,,
B2,,,,binds,
B3,,,,binds,binds
B4,,,,binds,
